Measured values reported in the Human Domainome abundance scans (Beltran et al. 2025).
± gives the uncertainty stated by the source.

B1: Kinesin-like protein KIF16B, residues 1213 to 1273; numbered along this chain, Q96L93 (parent)
chain: ETWTVFRRYSRFREMHKTLKLKYAELAALEFPPKKLFGNKDERVIAERRSHLEKYLRDFFS

Variants of: B1
Experiment: abundance fitness (aPCA) (normalised: wild type 0, dead -1); higher = more abundant; growth selection in yeast, the domain comes from the species named
Conditions: Homo sapiens

Abundance fitness: each site, then its substitutions
L21: T -0.079 ± 0.13 | G -0.028 ± 0.031 | K 0.339 ± 0.077 | H 0.112 ± 0.094 | N -0.289 ± 0.25 | D 0.101 ± 0.11 | E 0.352 ± 0.062 | Y -0.477 ± 0.18 | F -0.559 ± 0.19 | I -0.379 ± 0.27 | C -0.131 ± 0.077 | V 0.114 ± 0.054 | S 0.254 ± 0.06 | M 0.147 ± 0.096 | A 0.356 ± 0.075 | R 0.163 ± 0.056 | Q 0.159 ± 0.16
E25: Y -0.542 ± 0.12 | H -0.749 ± 0.42 | A -0.309 ± 0.092 | M -0.409 ± 0.2 | Q 0.015 ± 0.12 | T -0.468 ± 0.093 | F -0.224 ± 0.12 | L -0.465 ± 0.084 | R -0.352 ± 0.06 | I -0.292 ± 0.18 | V -0.475 ± 0.063 | K -0.144 ± 0.069 | G -0.384 ± 0.068 | S -0.238 ± 0.042
L26: F 0.158 ± 0.1 | R -0.872 ± 0.11 | G -0.667 ± 0.082 | K -0.279 ± 0.16 | C -0.047 ± 0.19 | Q -1.04 ± 0.21 | V -0.364 ± 0.079 | H -0.946 ± 0.17 | P -0.652 ± 0.14 | A -0.661 ± 0.14 | M -0.298 ± 0.085 | N -0.694 ± 0.19 | S -0.77 ± 0.14 | T -0.851 ± 0.13 | E -0.819 ± 0.15 | W -0.033 ± 0.067 | Y -0.306 ± 0.34 | D -0.573 ± 0.19
E14: L -0.429 ± 0.07 | A -0.318 ± 0.097 | W -0.69 ± 0.094 | M -0.41 ± 0.092 | V -0.299 ± 0.066 | Q -0.534 ± 0.14 | G -0.183 ± 0.063 | F -0.433 ± 0.22 | I -0.867 ± 0.22 | P -0.589 ± 0.25 | H 0.13 ± 0.19 | S -0.229 ± 0.064 | C -0.319 ± 0.2 | T -0.597 ± 0.22 | D -0.159 ± 0.18 | N -0.556 ± 0.15
F12: K -1.08 ± 0.25 | E -0.941 ± 0.23 | V 0.047 ± 0.067 | M -0.103 ± 0.14 | T -0.907 ± 0.45 | I 0.068 ± 0.14 | Y -0.469 ± 0.17 | C -0.164 ± 0.11 | A -0.271 ± 0.12 | S -0.642 ± 0.11 | G -0.597 ± 0.083 | R -0.921 ± 0.13 | W 0.017 ± 0.075
M15: R -1.09 ± 0.15 | Q -1.09 ± 0.36 | W 0.229 ± 0.054 | T -0.455 ± 0.095 | G -0.736 ± 0.076 | S -0.908 ± 0.24 | L 0.265 ± 0.074 | A -0.044 ± 0.078 | F -0.095 ± 0.18 | P -0.993 ± 0.26 | V 0.215 ± 0.057 | E -1.09 ± 0.17
A24: R 0.178 ± 0.049 | G -0.446 ± 0.11 | F -0.331 ± 0.17 | T -0.115 ± 0.1 | V -0.321 ± 0.095 | W -0.569 ± 0.12 | Q -0.227 ± 0.12 | P -0.518 ± 0.33 | E -0.174 ± 0.1 | S -0.24 ± 0.1 | M -0.107 ± 0.13 | L -0.352 ± 0.075
R11: L -0.059 ± 0.06 | C 0.166 ± 0.13 | T -0.096 ± 0.084 | P -0.133 ± 0.13 | M 0.423 ± 0.19 | N -0.122 ± 0.3 | D -0.231 ± 0.17 | E -0.487 ± 0.081 | Y -0.154 ± 0.29 | H -0.112 ± 0.13 | W 0.205 ± 0.066 | A 0.206 ± 0.12 | V 0.246 ± 0.18 | G -0.03 ± 0.042 | S 0.09 ± 0.083
K22: C -0.222 ± 0.12 | M -0.153 ± 0.1 | Q -0.828 ± 0.16 | P -0.921 ± 0.16 | S -1.01 ± 0.22 | Y -0.354 ± 0.28 | G -0.454 ± 0.072 | I 0.069 ± 0.095 | D -0.907 ± 0.37 | V 0.03 ± 0.059 | T -0.207 ± 0.12 | L 0.127 ± 0.055 | E -0.77 ± 0.3 | A -0.168 ± 0.09 | R -0.354 ± 0.071 | W 0.28 ± 0.078
L19: V -0.656 ± 0.1 | G -0.977 ± 0.14 | A -0.737 ± 0.29 | Q -0.991 ± 0.24 | T -0.844 ± 0.19 | F -0.146 ± 0.11 | N -0.658 ± 0.36 | S -1.11 ± 0.19 | K -0.999 ± 0.16 | C -0.603 ± 0.22 | E -0.917 ± 0.23 | M 0.144 ± 0.095 | R -1.07 ± 0.13 | P -1.02 ± 0.24 | D -1.13 ± 0.34
K17: R -0.199 ± 0.057 | M -0.343 ± 0.1 | T -0.489 ± 0.14 | E -0.311 ± 0.095 | Q -0.452 ± 0.12 | F -0.685 ± 0.27 | A -0.325 ± 0.13 | C -0.483 ± 0.16 | Y -0.607 ± 0.13 | L -1 ± 0.22 | W -0.783 ± 0.29 | V -0.225 ± 0.13
A27: N -0.281 ± 0.16 | T 0.127 ± 0.078 | K 0.286 ± 0.055 | M 0.246 ± 0.091 | W -0.362 ± 0.073 | Q 0.166 ± 0.09 | V -0.041 ± 0.058
